Data published in patent publication US20260234270A1, “METHODS FOR TREATING CONDITIONS USING ANTI-NMDA RECEPTOR ANTIBODIES” (Lankenau Institute for Medical Research, priority 2022, published 2026).
Entries after “also recorded” stand apart in the source; their conditions may differ.

Experiments:
retinal cells = details: glaucoma, elevated homocysteine; cited from earlier work
tinnitus = details: intratympanic injection; cited from earlier work
[1] = system: streptozotocin-induced diabetic mouse model; details: cited from earlier work
[2] = system: monkey model of experimental glaucoma; details: cited from earlier work
NMDAR GluN1 epitopes = target: T1, NMDAR GluN1 epitopes (Mus musculus, UniProt P35438); experiment: Antibody binding in mouse retina, model of retinitis pigmentosa
T1 construct: from tissue; host or cells: mouse retina, model of retinitis pigmentosa
From the text: Left panels show DAPI staining, middle panels show antibody staining, right antibodies show merged imaging.

[3] = system: amino terminal domain of GluN1; experiment: Competitive binding assay, Whole Cell ELISA with HEK293T-ATD cells; details: for Binding of one biotinylated mAb in the presence of increasing concentrations of the other mAb (2G6 versus 5F5): HEK293T-ATD cells, competitor 50 to 0.2 μg/mL, biotinylated mAb 5 μg/mL; for Competition of 1D1 with mixed 2G6 and 5F5 mAbs for binding to NMDAR ATD: experiments similar to Example 2
From the text: We assessed the binding epitopes of the 2G6 and 5F5 mAbs. We tested whether they bind overlapping epitopes on GluN1, using a competitive binding assay with HEK293T-ATD cells, which express the amino terminal domain of GluN1. Sharma, R., Al-Saleem, F. H., Panzer, J., Lee, J., Puligedda, R. D., Felicori, L. F., Kattala, C. D., Rattelle, A. J., Ippolito, G., Cox, R. H., Lynch, D. R. and Dessain, S. K. (2018), Monoclonal antibodies from a patient with anti-NMDA receptor encephalitis. Ann Clin Transl Neurol, 5:935-951, which is incorporated herein by reference.
HEK293T-ATD cells (10^5 cells/well) were tested in a Whole Cell ELISA with luminescent detection method. We biotinylated the 5F5 and 2G6 or 5F5 using the EZ-Link™ Hydrazide-Biotin kit (Thermo Fisher), then generated dilution series of 2G6 or 5F5 (50 μg/mL to 0.2 μg/mL) and added to them the plate for 1 h at 37° C., followed by three washes with PBST. We then added the biotinylated 5F5 or 2G6 mAbs at 5 μg/mL, or PBS, and incubated for 1 h at 37° C. followed by three washes with PBST. The Pierce Streptavidin Poly-HRP substrate (Thermo Fisher) was added at 1:2000 dilution and incubated for 1 h at 37° C. This was followed by SuperSignal ELISA Femto Substrate, (1:1 ratio) (Thermo Fisher) and relative luminescence values were measured using the Synergy II plate reader. Duplicate binding curves were plotted and the linear portions were used for analysis using Excel.
We measured binding of one mAb, biotinylated, in the presence of increasing concentrations of the other.
Experiments similar to those done in Example 2 were used to test whether the 1D1 binds a site on the NMDAR ATD that overlaps 2G6 and 5F5. In these experiments, 1D1 binding was tested in competition with mixed 2G6 and 5F5 mAbs.

NMDAR GluN1 antigen = NMDAR GluN1 antigen (Mus musculus, UniProt P35438); experiment: Immunofluorescence staining of mouse retinas (normoxic; oxygen induced retinopathy model); assay type: binding; details: chimeric antibodies
[4] = system: oxygen induced retinopathy (OIR) in mice; experiment: Mouse oxygen induced retinopathy (OIR) model, hyperoxia induced hemorrhage; assay type: in vivo; details: hyperoxia P7 to P12; eye injected at P12; other eye PBS
Protocol: Neonatal mice were exposed to hyperoxia (75% oxygen) from postnatal day 7 (P7) to P12, and then returned to room air. Upon return to room temperature, at P12, the eye on the right was injected with 5F5 antibody against NMDAR, while the left eye in the figure was injected with PBS.
We next examined the potential effects of the NMDAR antibodies on pathological retinal neovascularization. We used the well characterized model of oxygen induced retinopathy (OIR) in mice. In this model, neonatal mice are exposed to hyperoxia (75% oxygen) from postnatal day 7 (P7) to P12, and then returned to room air. This approach, induces pathological neovascularization in the retina. In FIGS. 3A and 3B, a comparison is shown between two eyes of a mouse exposed to hyperoxia. Upon return to room temperature, at P12, the eye in FIG. 3B was injected with 5F5 antibody against NMDAR, while the eye in FIG. 3A was injected with PBS. […] This is a wholly unexpected finding.

[5] = hyperoxic conditions (75% oxygen P7 to P12, oxygen induced retinopathy model)

Molecule	Antibody binding in mouse retina (epitope expression) (NMDAR GluN1 epitopes)	Binding of one biotinylated mAb in the presence of increasing concentrations of the other mAb (2G6 versus 5F5) [3]	Competition of 1D1 with mixed 2G6 and 5F5 mAbs for binding to NMDAR ATD [3]	Antibody binding in mouse retina (NMDAR GluN1 antigen; [5])	Antibody binding in mouse retina (NMDAR GluN1 antigen; normoxic conditions)	other results
C[C@]12N[C@H](Cc3ccccc31)c1ccccc12 [MK-801]	–	–	–	–	–	Homocysteine toxicity to retinal cells via NMDAR (retinal cells): inhibited
CN[C@]1(c2ccccc2Cl)CCCCC1=O [Esketamine]	–	–	–	–	–	Activity in treatment of tinnitus (tinnitus): has shown activity in treatment of tinnitus
CC12CC3CC(C)(C1)CC(N)(C3)C2 [Memantine]	–	–	–	–	–	Retinal toxicity [1]: reduce retinal toxicity; Retinal damage [2]: reduced retinal damage
2G6: monoclonal human anti-NMDAR (GluN1) antibody; variable heavy chain SEQ ID NO: 9, light chain SEQ ID NO: 11 (antibody, listed as Mus musculus, listed as Homo sapiens, V domains shown) VH: QVQLQESGGGVVQPGRSLRLSCAASGFSFNAFAMHWVRQAPGKGLEWVARISHYGSDDYYADSVKGRFTISRDNSQNTLFLQMNSLKAEDTGVYYCWRGFTLVRGVISRNPINRFSGMDVWGQGTTVTVS VL: SYELMQPPSVSVSPGQTARITCSGDALPKKYAYWYQQKSGQAPILVIYEDNKRPSGIPERFSGSSSGTMATLTISGAQVEDEADYFCYSTDSSGNHGVFGGGTKLTVL	expressed in the mouse retina	Bind Different Sites on the NMDAR	not inhibited by 1D1	expressed in the mouse retina; also recorded: immunoreactive with the outer segment of the photoreceptors as well as the choriocapillaris layers of the mouse retina; also recorded: show binding in outer segments of mouse retina	None of the anti-NMDAR antibodies or the control antibody bound to mouse retina	–
5F5: monoclonal human anti-NMDAR (GluN1) antibody; variable heavy chain SEQ ID NO: 1, light chain SEQ ID NO: 3; chimeric form in Examples 5-8 (antibody, listed as Mus musculus, listed as Homo sapiens, V domains shown) VH: QVQLVESGGGVVRPGGSLRLSCAASGFTFSTYSLHWVRQAPGKGLEWVGVILYDGSKKYYADSVRGRFTISRDNSKSTLNLDMSSLRPDDTAVYYCARDPIAVAPRPSGMVPQGFDYWGQGTLVTVSS VL: QSVVTQPPSASGTPGQRVTISCSGSSSNIGRNFVFWYRQLPGTAPKVLIYKNIQRPSGVPDRISGSRSGSSASLAISGLRSEDEADYYCASWDDSLSGVVFGGGTKLTVL	expressed in the mouse retina	Bind Different Sites on the NMDAR	not inhibited by 1D1	shows staining; also recorded: show binding in outer segments of mouse retina	None of the anti-NMDAR antibodies or the control antibody bound to mouse retina	Retinal bleeding / pathological neovascularization of the treated eye [4]: Prevents Hyperoxia Induced Hemorrhage; also recorded: the treated eye shows no bleeding; Antibody binding in mouse retina (NMDAR GluN1 antigen; hyperoxic conditions (75% oxygen P7 to P12, oxygen induced retinopathy model), listed as 5G5): immunoreactive with the outer segment of the photoreceptors as well as the choriocapillaris layers of the mouse retina
1D1: monoclonal human anti-NMDAR (GluN1) antibody; variable heavy chain SEQ ID NO: 5, light chain SEQ ID NO: 7 (antibody, listed as Mus musculus, listed as Homo sapiens, V domains shown) VH: LVQLVESGGGVVQSGRSLRLSCAASGFAFHTFTIHWVRQAPGKGLDWVTAIYFDGTKKYYADSVKGRFTVSRDNSKNTVYLQMNGLRGEDTAVYYCARARYSYGLSFDYWGQGTPVTVSS VL: QSVVTQPPSVSAAPGQKVTISCSASSSYLGSNYVSWYQQLPGTAPKLLIYDNNKRSSGISDRFSGSKSGTSATLDITGLQTGDEADYYCGAWDSSLSVVVFGGGTKLTVL	–	–	not inhibited by 2G6 and 5F5 binding	expressed in the mouse retina; also recorded: immunoreactive with the outer segment of the photoreceptors as well as the choriocapillaris layers of the mouse retina; also recorded: show binding in outer segments of mouse retina	None of the anti-NMDAR antibodies or the control antibody bound to mouse retina	–
